The target in test [1] is recombinant human VEGF165 (human, UniProt P15692 207-395). Briefly: cell-based or functional assay.
The target of test [2] is recombinant human PDGF-BB (human, UniProt P01127 82-190). Briefly: cell-based or functional assay.
Chain of recombinant human PDGF-BB (P01127 82-190 limits assumed): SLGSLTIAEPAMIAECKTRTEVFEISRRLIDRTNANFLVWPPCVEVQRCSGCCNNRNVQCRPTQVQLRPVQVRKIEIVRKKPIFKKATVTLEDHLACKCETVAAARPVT

Chain of recombinant human VEGF165 (P15692 other isoform, or with tags, fused parts or gaps limits assumed): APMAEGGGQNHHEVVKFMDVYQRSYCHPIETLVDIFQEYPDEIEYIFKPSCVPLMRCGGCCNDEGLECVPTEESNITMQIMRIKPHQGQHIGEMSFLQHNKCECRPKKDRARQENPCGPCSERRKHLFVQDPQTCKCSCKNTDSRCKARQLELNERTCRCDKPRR

B1: 9E8.4_GS_1B10.1 (bispecific antibody, human IgG1, kappa, L234A L235A)
heavy: EVTLRESGPALVKPTQTLTLTCTFSGFSLSTYGMGVGWIRQPPGKALEWLANIWWDDDKYYNPSLKNRLTISKDTSKNQVVLTMTNMDPVDTATYYCARIESIGTTYSFDYWGQGTMVTVSSGGGGSGGGGSEVQLVESGGGLVQPGGSLRLSCAASGFSFSKYDMAWFRQAPGKGLEWVASITTSGVGTYYRDSVKGRFTVSRDNAKSTLYLQMNSLRAEDTAVYYCARGYGAMDAWGQGTTVTVSSASTKGPSVFPLAPSSKSTSGGTAALGCLVKDYFPEPVTVSWNSGALTSGVHTFPAVLQSSGLYSLSSVVTVPSSSLGTQTYICNVNHKPSNTKVDKKVEPKSCDKTHTCPPCPAPEAAGGPSVFLFPPKPKDTLMISRTPEVTCVVVDVSHEDPEVKFNWYVDGVEVHNAKTKPREEQYNSTYRVVSVLTVLHQDWLNGKEYKCKVSNKALPAPIEKTISKAKGQPREPQVYTLPPSREEMTKNQVSLTCLVKGFYPSDIAVEWESNGQPENNYKTTPPVLDSDGSFFLYSKLTVDKSRWQQGNVFSCSVMHEALHNAYTQKSLSLSPGK
light: EFVLTQSPGTLSLSPGERATLSCERSSGDIGDSYVSWYQQKPGQAPRLVIYADDQRPSGIPDRFSGSGSGTDFTLTISRLEPEDFAVYYCQSYDINIDIVFGGGTKVEIKGGSGGGGSGGDIQMTQSPSSLSASVGDRVTITCKASQDIDDYLSWYQQKPGKSPKLVIYAATRLADGVPSRFSGSGSGTDYTLTISSLQPEDFATYYCLQSSSTPWTFGGGTKVEIKRTVAAPSVFIFPPSDEQLKSGTASVVCLLNNFYPREAKVQWKVDNALQSGNSQESVTEQDSKDSTYSLSSTLTLSKADYEKHKVYACEVTHQGLSSPVTKSFNRGEC
Turning to B1, the “Potency IC50 (nM) HMVEC-d hVEGF165” value in test [1] stood at 0.391 nM. Also, the “Potency IC50 (nM) NIH-3T3 hPDGF-BB” value in test [2] came out at 0.109 nM.

B2: 4G8.5_GS_9E8.4 (bispecific antibody, human IgG1, kappa, L234A L235A)
heavy: EIQLVQSGSELKKPGASVKVSCKASGYTFTNYGMYWVRQAPGQGLEYMGWINTETGKPTYADDFKGRFVFSLDTSVSTAYLQISSLKAEDTAVYFCARTNYYYRSYIFYFDYWGQGTMVTVSSGGGGSGGGGSEVTLRESGPALVKPTQTLTLTCTFSGFSLSTYGMGVGWIRQPPGKALEWLANIWWDDDKYYNPSLKNRLTISKDTSKNQVVLTMTNMDPVDTATYYCARIESIGTTYSFDYWGQGTMVTVSSASTKGPSVFPLAPSSKSTSGGTAALGCLVKDYFPEPVTVSWNSGALTSGVHTFPAVLQSSGLYSLSSVVTVPSSSLGTQTYICNVNHKPSNTKVDKKVEPKSCDKTHTCPPCPAPEAAGGPSVFLFPPKPKDTLMISRTPEVTCVVVDVSHEDPEVKFNWYVDGVEVHNAKTKPREEQYNSTYRVVSVLTVLHQDWLNGKEYKCKVSNKALPAPIEKTISKAKGQPREPQVYTLPPSREEMTKNQVSLTCLVKGFYPSDIAVEWESNGQPENNYKTTPPVLDSDGSFFLYSKLTVDKSRWQQGNVFSCSVMHEALHNAYTQKSLSLSPGK
light: ATQLTQSPSLSASVGDRVTITCRASESVSTHMHWYQQKPGKQPKLLIYGASNLESGVPSRFSGSGSGTDFTLTISSLQPEDFATYFCQQSWNDPFTFGQGTKLEIKGGSGGGGSGGEFVLTQSPGTLSLSPGERATLSCERSSGDIGDSYVSWYQQKPGQAPRLVIYADDQRPSGIPDRFSGSGSGTDFTLTISRLEPEDFAVYYCQSYDINIDIVFGGGTKVEIKRTVAAPSVFIFPPSDEQLKSGTASVVCLLNNFYPREAKVQWKVDNALQSGNSQESVTEQDSKDSTYSLSSTLTLSKADYEKHKVYACEVTHQGLSSPVTKSFNRGEC
Turning to B2, the “Potency IC50 (nM) HMVEC-d hVEGF165” value in test [1] was determined as 0.069 nM. The “Potency IC50 (nM) NIH-3T3 hPDGF-BB” value in test [2] amounted to 4.83 nM.

B3: 9E10.1_GS_9E8.4 (bispecific antibody, human IgG1, kappa, L234A L235A)
heavy: EIQLVQSGSELKKPGASVKVSCKASGYTFTNYGMYWVKQAPGQGLEYMGWIDTETGRPTYADDFKGRFVFSLDTSVSTAYLQISSLKAEDTAVYFCARWSGDTTGIRGPWFAYWGQGTLVTVSSGGGGSGGGGSEVTLRESGPALVKPTQTLTLTCTFSGFSLSTYGMGVGWIRQPPGKALEWLANIWWDDDKYYNPSLKNRLTISKDTSKNQVVLTMTNMDPVDTATYYCARIESIGTTYSFDYWGQGTMVTVSSASTKGPSVFPLAPSSKSTSGGTAALGCLVKDYFPEPVTVSWNSGALTSGVHTFPAVLQSSGLYSLSSVVTVPSSSLGTQTYICNVNHKPSNTKVDKKVEPKSCDKTHTCPPCPAPEAAGGPSVFLFPPKPKDTLMISRTPEVTCVVVDVSHEDPEVKFNWYVDGVEVHNAKTKPREEQYNSTYRVVSVLTVLHQDWLNGKEYKCKVSNKALPAPIEKTISKAKGQPREPQVYTLPPSREEMTKNQVSLTCLVKGFYPSDIAVEWESNGQPENNYKTTPPVLDSDGSFFLYSKLTVDKSRWQQGNVFSCSVMHEALHNAYTQKSLSLSPGK
light: DIRMTQSPSSLSASVGDRVTIECLASEDIYSDLAWYQQKPGKSPKLLIYNANGLQNGVPSRFSGSGSGTDYSLTISSLQPEDVATYFCQQYNYFPGTFGQGTKLEIKGGSGGGGSGGEFVLTQSPGTLSLSPGERATLSCERSSGDIGDSYVSWYQQKPGQAPRLVIYADDQRPSGIPDRFSGSGSGTDFTLTISRLEPEDFAVYYCQSYDINIDIVFGGGTKVEIKRTVAAPSVFIFPPSDEQLKSGTASVVCLLNNFYPREAKVQWKVDNALQSGNSQESVTEQDSKDSTYSLSSTLTLSKADYEKHKVYACEVTHQGLSSPVTKSFNRGEC
For the molecule B3, the “Potency IC50 (nM) HMVEC-d hVEGF165” value in test [1] was 0.059 nM. Besides, the “Potency IC50 (nM) NIH-3T3 hPDGF-BB” value in test [2] was 1.91 nM.

B4: 9E10.6_GS_9E8.4 (bispecific antibody, human IgG1, kappa, L234A L235A)
heavy: EVQLVQSGAEVKKPGSSVKVSCKASGYTFTNYGMYWVRQAPGQGLEWMGWIDTETGRPTYADDFKGRFTFTADKSTSTAYMELSSLRSEDTAVYYCARWSGDTTGIRGPWFAYWGQGTLVTVSSGGGGSGGGGSEVTLRESGPALVKPTQTLTLTCTFSGFSLSTYGMGVGWIRQPPGKALEWLANIWWDDDKYYNPSLKNRLTISKDTSKNQVVLTMTNMDPVDTATYYCARIESIGTTYSFDYWGQGTMVTVSSASTKGPSVFPLAPSSKSTSGGTAALGCLVKDYFPEPVTVSWNSGALTSGVHTFPAVLQSSGLYSLSSVVTVPSSSLGTQTYICNVNHKPSNTKVDKKVEPKSCDKTHTCPPCPAPEAAGGPSVFLFPPKPKDTLMISRTPEVTCVVVDVSHEDPEVKFNWYVDGVEVHNAKTKPREEQYNSTYRVVSVLTVLHQDWLNGKEYKCKVSNKALPAPIEKTISKAKGQPREPQVYTLPPSREEMTKNQVSLTCLVKGFYPSDIAVEWESNGQPENNYKTTPPVLDSDGSFFLYSKLTVDKSRWQQGNVFSCSVMHEALHNAYTQKSLSLSPGK
light: DIRMTQSPSSLSASVGDRVTITCLASEDIYSDLAWYQQKPGKSPKLLIYNANGLQNGVPSRFSGSGSGTDYTLTISSLQPEDVATYFCQQYNYFPGTFGQGTKLEIKGGSGGGGSGGEFVLTQSPGTLSLSPGERATLSCERSSGDIGDSYVSWYQQKPGQAPRLVIYADDQRPSGIPDRFSGSGSGTDFTLTISRLEPEDFAVYYCQSYDINIDIVFGGGTKVEIKRTVAAPSVFIFPPSDEQLKSGTASVVCLLNNFYPREAKVQWKVDNALQSGNSQESVTEQDSKDSTYSLSSTLTLSKADYEKHKVYACEVTHQGLSSPVTKSFNRGEC
With B4, the “Potency IC50 (nM) HMVEC-d hVEGF165” value in test [1] amounted to 0.049 nM. Also, the “Potency IC50 (nM) NIH-3T3 hPDGF-BB” value in test [2] worked out at 1.14 nM.

B5: 9E10.6_GS_CL-33675 (bispecific antibody, human IgG1, kappa, L234A L235A)
heavy: EVQLVQSGAEVKKPGSSVKVSCKASGYTFTNYGMYWVRQAPGQGLEWMGWIDTETGRPTYADDFKGRFTFTADKSTSTAYMELSSLRSEDTAVYYCARWSGDTTGIRGPWFAYWGQGTLVTVSSGGGGSGGGGSEVTLRESGPALVKPTQTLTLTCTFSGFSLSTYGMGVGWIRQPPGKALEWLANIWWDDDKYYNPSLKNRLTISKDTSKNQVVLTMTNMDPVDTATYYCARIESSGPKYSFDYWGQGTMVTVSSASTKGPSVFPLAPSSKSTSGGTAALGCLVKDYFPEPVTVSWNSGALTSGVHTFPAVLQSSGLYSLSSVVTVPSSSLGTQTYICNVNHKPSNTKVDKKVEPKSCDKTHTCPPCPAPEAAGGPSVFLFPPKPKDTLMISRTPEVTCVVVDVSHEDPEVKFNWYVDGVEVHNAKTKPREEQYNSTYRVVSVLTVLHQDWLNGKEYKCKVSNKALPAPIEKTISKAKGQPREPQVYTLPPSREEMTKNQVSLTCLVKGFYPSDIAVEWESNGQPENNYKTTPPVLDSDGSFFLYSKLTVDKSRWQQGNVFSCSVMHEALHNAYTQKSLSLSPGK
light: DIRMTQSPSSLSASVGDRVTITCLASEDIYSDLAWYQQKPGKSPKLLIYNANGLQNGVPSRFSGSGSGTDYTLTISSLQPEDVATYFCQQYNYFPGTFGQGTKLEIKGGSGGGGSGGEIVLTQSPGTLSLSPGERATLSCRASSGSIWYSFVSWYQQKPGQAPRLLIYADDQRASGIPDRFSGSGSGTDFTLTISRLEPEDFAVYYCQSYGINIDVVFGGGTKVEIKRTVAAPSVFIFPPSDEQLKSGTASVVCLLNNFYPREAKVQWKVDNALQSGNSQESVTEQDSKDSTYSLSSTLTLSKADYEKHKVYACEVTHQGLSSPVTKSFNRGEC
B5: the “Potency IC50 (nM) HMVEC-d hVEGF165” value in test [1] amounted to 0.05 nM. Also, the “Potency IC50 (nM) NIH-3T3 hPDGF-BB” value in test [2] worked out at 0.037 nM.

B6: 9E8.4_GS_1E3.4 (bispecific antibody, human IgG1, kappa, L234A L235A)
heavy: EVTLRESGPALVKPTQTLTLTCTFSGFSLSTYGMGVGWIRQPPGKALEWLANIWWDDDKYYNPSLKNRLTISKDTSKNQVVLTMTNMDPVDTATYYCARIESIGTTYSFDYWGQGTMVTVSSGGGGSGGGGSEIQLVQSGSELKKPGASVKVSCKASGYPFTNSGMYWVKQAPGQGLEYMGWINTEAGKPTYADDFKGRFVFSLDTSVSTAYLQISSLKAEDTAVYFCARWGYISDNSYGWFDYWGQGTLVTVSSASTKGPSVFPLAPSSKSTSGGTAALGCLVKDYFPEPVTVSWNSGALTSGVHTFPAVLQSSGLYSLSSVVTVPSSSLGTQTYICNVNHKPSNTKVDKKVEPKSCDKTHTCPPCPAPEAAGGPSVFLFPPKPKDTLMISRTPEVTCVVVDVSHEDPEVKFNWYVDGVEVHNAKTKPREEQYNSTYRVVSVLTVLHQDWLNGKEYKCKVSNKALPAPIEKTISKAKGQPREPQVYTLPPSREEMTKNQVSLTCLVKGFYPSDIAVEWESNGQPENNYKTTPPVLDSDGSFFLYSKLTVDKSRWQQGNVFSCSVMHEALHNAYTQKSLSLSPGK
light: EFVLTQSPGTLSLSPGERATLSCERSSGDIGDSYVSWYQQKPGQAPRLVIYADDQRPSGIPDRFSGSGSGTDFTLTISRLEPEDFAVYYCQSYDINIDIVFGGGTKVEIKGGSGGGGSGGATQLTQSPSSLSASVGDRVTISCRASEGVYSYMHWYQQKPGKQPKLLIYKASNLASGVPSRFSGSGSGTDFTLTISSLQPEDFATYFCHQNWNDPLTFGQGTKLEIKRTVAAPSVFIFPPSDEQLKSGTASVVCLLNNFYPREAKVQWKVDNALQSGNSQESVTEQDSKDSTYSLSSTLTLSKADYEKHKVYACEVTHQGLSSPVTKSFNRGEC
On to B6, for which the “Potency IC50 (nM) HMVEC-d hVEGF165” value in test [1] worked out at 0.897 nM. Moreover, in test [2], the “Potency IC50 (nM) NIH-3T3 hPDGF-BB” value worked out at 0.131 nM.

The values are drawn from patent US20170015742A1 (published 2017).
